Laboratory results published in PMC2596486.

Key:
[1] = molecular target: rHA subtype H1 (A/New Caledonia/20/99) (influenza A virus A/New Caledonia/20/99 (H1)) (UniProt Q6WG00); assay: SPR
[2] = molecular target: rHA subtype H1 (A/New Caledonia/20/99) (Influenza A virus A/New Caledonia/20/1999 (H1N1)) (UniProt Q6WG00); assay: SPR

Substance	Kd [1] [nM]	koff [1] [s⁻¹]	kon [1] [M⁻¹ s⁻¹]	Kd [2] [nM]	koff [2] [s⁻¹]	kon [2] [M⁻¹ s⁻¹]
CR6261 Fab	3.8	0.0037	980000			
CR6323 Fab				3.9	0.00054	140000
